According to patent US20250262210A1 (TRUSTEES OF COLUMBIA UNIVERSITY IN THE CITY OF NEW YORK, published 2025):

Experiments:
Experiment in all cases: IP/MS, LZTR1 wild type-FLAG, U87
PAPPA = PAPPA (human, UniProt Q13219 82-1627)
Method in brief: (§1)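 Gel slices were reduced with 5 mM DTT, alkylated with 11 mM IAA and digested overnight at 37° C. with trypsin. Peptides were analysed on an Orbitrap Fusion Tribrid by LC-MS/MS.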

MOCOS = molecular target: T1, MOCOS (human, UniProt Q96EN8 1-888)
T1 sequence (looked up): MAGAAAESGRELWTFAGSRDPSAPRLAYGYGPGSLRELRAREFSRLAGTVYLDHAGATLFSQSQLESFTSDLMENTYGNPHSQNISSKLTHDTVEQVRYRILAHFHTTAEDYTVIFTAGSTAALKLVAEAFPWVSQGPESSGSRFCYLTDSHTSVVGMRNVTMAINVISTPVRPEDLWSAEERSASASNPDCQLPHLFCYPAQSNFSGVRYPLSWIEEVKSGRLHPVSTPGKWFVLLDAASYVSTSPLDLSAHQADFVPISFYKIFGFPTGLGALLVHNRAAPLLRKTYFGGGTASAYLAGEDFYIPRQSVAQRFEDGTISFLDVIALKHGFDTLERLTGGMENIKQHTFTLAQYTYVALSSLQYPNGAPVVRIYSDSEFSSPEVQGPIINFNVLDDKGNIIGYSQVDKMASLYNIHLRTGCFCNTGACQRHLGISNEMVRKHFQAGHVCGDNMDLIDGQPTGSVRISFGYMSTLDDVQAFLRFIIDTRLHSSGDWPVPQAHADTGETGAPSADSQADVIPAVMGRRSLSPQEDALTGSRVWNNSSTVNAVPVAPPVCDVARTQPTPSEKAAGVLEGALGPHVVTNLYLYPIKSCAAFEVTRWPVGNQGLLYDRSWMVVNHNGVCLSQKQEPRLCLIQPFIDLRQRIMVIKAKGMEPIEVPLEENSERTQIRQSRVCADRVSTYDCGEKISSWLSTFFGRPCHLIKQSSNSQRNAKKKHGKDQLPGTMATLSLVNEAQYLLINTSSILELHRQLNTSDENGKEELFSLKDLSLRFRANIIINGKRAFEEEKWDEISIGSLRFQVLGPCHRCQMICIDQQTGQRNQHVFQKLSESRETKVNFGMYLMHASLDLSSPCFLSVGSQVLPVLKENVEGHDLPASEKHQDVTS
Method in brief: as §1

RNF213 = RNF213 (human, UniProt Q63HN8 1-5207, limits assumed)
Method in brief: as §1

Measured: binding result

Chain of PAPPA (Q13219 82-1627 limits assumed): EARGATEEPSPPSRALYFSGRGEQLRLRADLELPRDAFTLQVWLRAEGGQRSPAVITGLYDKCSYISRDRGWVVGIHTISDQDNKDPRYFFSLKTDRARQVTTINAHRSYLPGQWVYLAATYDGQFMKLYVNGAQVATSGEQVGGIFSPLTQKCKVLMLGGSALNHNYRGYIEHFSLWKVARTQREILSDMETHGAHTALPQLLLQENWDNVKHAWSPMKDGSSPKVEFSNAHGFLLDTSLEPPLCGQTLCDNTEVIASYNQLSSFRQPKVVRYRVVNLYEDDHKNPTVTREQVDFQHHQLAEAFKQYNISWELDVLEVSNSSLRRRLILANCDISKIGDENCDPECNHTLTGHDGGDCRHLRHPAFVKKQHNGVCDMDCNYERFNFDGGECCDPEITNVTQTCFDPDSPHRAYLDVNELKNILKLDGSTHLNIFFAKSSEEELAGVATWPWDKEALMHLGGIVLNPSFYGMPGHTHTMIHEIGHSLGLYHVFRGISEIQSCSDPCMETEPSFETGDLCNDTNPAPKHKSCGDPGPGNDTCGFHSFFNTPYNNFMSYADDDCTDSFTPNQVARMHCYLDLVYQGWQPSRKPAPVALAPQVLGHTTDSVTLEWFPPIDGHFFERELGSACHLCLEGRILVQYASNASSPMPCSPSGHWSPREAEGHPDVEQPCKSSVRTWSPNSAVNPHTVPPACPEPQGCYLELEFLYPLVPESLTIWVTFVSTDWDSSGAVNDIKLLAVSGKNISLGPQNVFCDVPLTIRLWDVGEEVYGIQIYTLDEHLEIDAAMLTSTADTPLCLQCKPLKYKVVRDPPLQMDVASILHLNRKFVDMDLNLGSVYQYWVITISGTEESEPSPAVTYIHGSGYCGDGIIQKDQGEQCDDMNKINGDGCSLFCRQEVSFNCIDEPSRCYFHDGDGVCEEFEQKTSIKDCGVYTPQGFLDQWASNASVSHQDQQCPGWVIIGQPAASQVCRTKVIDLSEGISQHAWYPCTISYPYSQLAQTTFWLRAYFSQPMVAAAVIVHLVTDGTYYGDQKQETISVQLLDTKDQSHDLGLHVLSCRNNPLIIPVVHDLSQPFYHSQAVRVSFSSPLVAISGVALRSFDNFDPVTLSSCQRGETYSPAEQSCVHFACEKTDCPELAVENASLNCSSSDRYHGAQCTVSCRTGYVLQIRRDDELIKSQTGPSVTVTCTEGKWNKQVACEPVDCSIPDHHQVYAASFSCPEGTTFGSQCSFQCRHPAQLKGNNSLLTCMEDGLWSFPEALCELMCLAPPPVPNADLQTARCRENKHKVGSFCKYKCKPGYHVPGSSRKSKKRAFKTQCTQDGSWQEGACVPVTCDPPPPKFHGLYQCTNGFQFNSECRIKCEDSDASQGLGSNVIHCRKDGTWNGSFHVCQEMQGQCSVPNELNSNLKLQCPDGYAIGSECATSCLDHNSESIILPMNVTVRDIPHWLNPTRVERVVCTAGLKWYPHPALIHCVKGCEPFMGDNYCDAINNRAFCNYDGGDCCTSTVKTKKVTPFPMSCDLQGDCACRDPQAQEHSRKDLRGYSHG

B1: LZTR1-FLAG (other, human, UniProt Q8N653 1-840, looked up)
chain: MAGPGSTGGQIGAAALAGGARSKVAPSVDFDHSCSDSVEYLTLNFGPFETVHRWRRLPPCDEFVGARRSKHTVVAYKDAIYVFGGDNGKTMLNDLLRFDVKDCSWCRAFTTGTPPAPRYHHSAVVYGSSMFVFGGYTGDIYSNSNLKNKNDLFEYKFATGQWTEWKIEGRLPVARSAHGATVYSDKLWIFAGYDGNARLNDMWTIGLQDRELTCWEEVAQSGEIPPSCCNFPVAVCRDKMFVFSGQSGAKITNNLFQFEFKDKTWTRIPTEHLLRGSPPPPQRRYGHTMVAFDRHLYVFGGAADNTLPNELHCYDVDFQTWEVVQPSSDSEVGGAEVPERACASEEVPTLTYEERVGFKKSRDVFGLDFGTTSAKQPTQPASELPSGRLFHAAAVISDAMYIFGGTVDNNIRSGEMYRFQFSCYPKCTLHEDYGRLWESRQFCDVEFVLGEKEECVQGHVAIVTARSRWLRRKITQARERLAQKLEQEAAPVPREAPGVAAGGARPPLLHVAIREAEARPFEVLMQFLYTDKIKYPRKGHVEDVLLIMDVYKLALSFQLCRLEQLCRQYIEASVDLQNVLVVCESAARLQLSQLKEHCLNFVVKESHFNQVIMMKEFERLSSPLIVEIVRRKQQPPPRTPLDQPVDIGTSLIQDMKAYLEGAGAEFCDITLLLDGHPRPAHKAILAARSSYFEAMFRSFMPEDGQVNISIGEMVPSRQAFESMLRYIYYGEVNMPPEDSLYLFAAPYYYGFYNNRLQAYCKQNLEMNVTVQNVLQILEAADKTQALDMKRHCLHIIVHQFTKVSKLPTLRSLSQQLLLDIIDSLASHISDKQCAELGADI
notes: Expressed in HEK 293T, HeLa or U87 cells; used as cell lysate; also called LZTR1 wild type-FLAG; LZTR1 WT; not shown: FLAG tag at the C-terminus
binds: all assays above
